Measurements published in patent US20180044393A1 (INSERM INSTITUT NATIONAL DE LA SANT ET DE LA RECHERCHE M …, published 2018).
Substitutions are numbered along the chain they refer to. Positions of bridges follow the written chain, without caps; N, C: chain ends. No end group written: not given here. *: point of attachment. 125I = [125I]*

Legend:
Test in all cases: 125I-OxA binding on CHO-S cells expressing the OX1R mutant
OX1R V121A = biological target: T1, OX1R V121A (human, UniProt O43613 1-425)
T1 construct: site-directed mutant (TM3) stably expressed in CHO-S cells; not shown: YFP from vector pEYFP-N2 fused at the C-terminus
T1 chain: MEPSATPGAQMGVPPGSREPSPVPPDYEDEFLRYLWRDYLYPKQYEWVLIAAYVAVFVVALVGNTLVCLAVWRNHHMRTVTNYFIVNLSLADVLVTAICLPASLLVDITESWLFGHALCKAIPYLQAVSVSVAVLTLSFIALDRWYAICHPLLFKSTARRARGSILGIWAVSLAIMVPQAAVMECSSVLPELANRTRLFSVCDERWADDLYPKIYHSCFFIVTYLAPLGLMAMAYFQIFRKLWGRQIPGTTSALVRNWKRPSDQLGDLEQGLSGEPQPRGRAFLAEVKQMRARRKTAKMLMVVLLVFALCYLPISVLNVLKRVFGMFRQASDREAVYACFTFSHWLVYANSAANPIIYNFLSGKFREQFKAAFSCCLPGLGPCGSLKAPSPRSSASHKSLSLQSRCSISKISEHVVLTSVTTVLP
Method: (§1) CHO—S cells expressing recombinant native or mutated OX1R were grown as previously described (El Firar et al., 2009) and maintained at 37° C. in a humidified 5% CO₂/air incubator. ¹²⁵I-orexia-A (74 TBq/mmol) was prepared as previously described (El Firar et al., 2009). […] Free peptides were removed by 2 cell washing cycles with PBS. […] Data were analyzed using the GraphPad software (http://www.graphpad.com).
(§2) All residues of OX1R fulfilling this condition were mutated to alanine by site-directed mutagenesis (Table II).

OX1R P101A = biological target: T2, OX1R P101A (human, UniProt O43613 1-425)
T2 construct: site-directed mutant (TM2) stably expressed in CHO-S cells; not shown: YFP from vector pEYFP-N2 fused at the C-terminus
T2 chain: T1 chain with P101A, A121V
Method: as §1, §2

OX1R Y124A = biological target: T3, OX1R Y124A (human, UniProt O43613 1-425)
T3 construct: site-directed mutant (TM3) stably expressed in CHO-S cells; not shown: YFP from vector pEYFP-N2 fused at the C-terminus
T3 chain: T1 chain with A121V, Y124A
Method: as §1, §2

OX1R T341A = biological target: T4, OX1R T341A (human, UniProt O43613 1-425)
T4 construct: site-directed mutant (TM7) stably expressed in CHO-S cells; not shown: YFP from vector pEYFP-N2 fused at the C-terminus
T4 chain: T1 chain with A121V, T341A
Method: as §1, §2

OX1R F340A = biological target: T5, OX1R F340A (human, UniProt O43613 1-425)
T5 construct: site-directed mutant (TM7) stably expressed in CHO-S cells; not shown: YFP from vector pEYFP-N2 fused at the C-terminus
T5 chain: T1 chain with A121V, F340A
Method: as §1, §2

Measured: binding result

B1: 125I-orexin-A (peptide, UniProt O43612 34-66, looked up)
peptide: QPLPDCCRQKTCSCRLY(125I)ELLHGAGNHAAGILTL
modifications: disulfide 6-12, 7-14; not fully specified (residue 1, C-terminus)
notes: mature; also called OxA
binds: all assays above
